Source: article doi:10.1101/619858

Molecular target: α-Synuclein (α-Syn), wild type (UniProt P37840)

percent of the protein as fibrils (day 5): 2%
percent of the protein as oligomers (day 5): 8%
Substance: α-Synuclein (α-Syn), wild type (from UniProt P37840 1-140) (natural protein)
